From the supplement of paper PMC9732359
± gives the uncertainty stated by the source.

Assay: protein stability index of a GFP-peptide fusion (yeast GPS) (PSI 1-4); higher = more stable; sorted into four equal gates, so the index is relative within each strain
Outline: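 Sequencing reads from sorted gates were used to score each peptide. The library consisted of tiled 17-residue yeast protein peptides fused downstream of GFP on a Cherry-expressing plasmid, pooled and carried in yeast. Mid-log cultures in leucine-free medium were split into four equal gates by GFP/Cherry ratio, and each gate's plasmids were PCR-amplified and Illumina-sequenced. The protein stability index adds up, over all gates, the read frequency multiplied by the gate number.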

Row | Sequence | protein stability index (doa10∆) | protein stability index (pdr5∆) | protein stability index (san1∆) | protein stability index (ubr1∆)
1 | EDGTSASFQIVEEDHTL [RPC19] | 3.02 ± 0.16 | 3.69 ± 0.17 | 3.4 ± 0.12 | 3.25 ± 0.13
2 | KVLTALSRLQKSGRING [SMC4] |  | 3.43 ± 0.2 | 3.29 ± 0.083 | 3.43 ± 0.19
3 | SKLLREHGYQSRGFEVM [RPB2] | 3.14 ± 0.13 | 2.71 ± 0.16 | 2.9 ± 0.14 | 2.61 ± 0.19
4 | TKIDMPIKNRKNDTHYL [BRN1] | 3.04 ± 0.07 | 3.05 ± 0.075 | 2.93 ± 0.055 | 2.94 ± 0.053
5 | ALELDDTVVSRVNEMVQ [ECM29] | 3.16 ± 0.17 |  |  | 3.16 ± 0.1
6 | QWSMVAQRLQISDYQQL [SWI1] | 1.53 ± 0.057 | 1.65 ± 0.054 | 1.59 ± 0.12 | 1.41 ± 0.054
7 | TFRRRNPYNTRSNKIKV [RPL34A] | 1.43 ± 0.04 | 1.81 ± 0.045 | 1.67 ± 0.066 | 1.9 ± 0.04
8 | EQKNTAKEELNGLKDQL [YIL149C/MLP2] | 3.19 ± 0.1 | 3.32 ± 0.16 | 3.12 ± 0.054 | 3.31 ± 0.07
9 | SDIISMLQISDDNEMTR [RRI2] | 3.05 ± 0.096 | 3.24 ± 0.1 | 3.2 ± 0.045 | 2.87 ± 0.1
10 | ELMAMNITPRLYTDRSR [RPB2] | 1.91 ± 0.12 | 1.68 ± 0.074 | 1.23 ± 0.13 | 1.96 ± 0.074
11 | DIQLKNLFPLKPKMLPI [SRP68] | 2.78 ± 0.077 | 2.66 ± 0.057 | 2.4 ± 0.058 | 2.46 ± 0.073
12 | DQFQWILRKPGKDCKLQ [RRI2] | 2.62 ± 0.19 | 3.25 ± 0.17 | 3.26 ± 0.16 | 3.3 ± 0.16
13 | LKNEGIDLDHKRFLILQ [SMC4] | 2.21 ± 0.22 | 2.35 ± 0.13 | 2.15 ± 0.12 | 2.84 ± 0.068
14 | SRKRKPKSASNTSSKRQ [IRR1] | 2.86 ± 0.1 | 2.7 ± 0.14 | 2.89 ± 0.085 | 3.09 ± 0.069
15 | ITIQLTRDVEPENLQVT [BRR2] | 2.79 ± 0.083 | 3.04 ± 0.13 |  | 2.85 ± 0.078
16 | ELWRKEQKLQTVLETLL [SMC3] | 2.9 ± 0.13 | 3.42 ± 0.11 | 2.7 ± 0.17 | 3.31 ± 0.064
17 | LPILPIQRLRLLREKQR [YOR098C/NUP1] | 2.09 ± 0.086 | 1.55 ± 0.062 | 1.17 ± 0.25 | 2.02 ± 0.097
18 | NETIIDNFSPHQNVIIG [SMC3] |  | 2.56 ± 0.17 | 2.29 ± 0.13 | 
19 | FNDSQAIVCYILFELYK [SRP72] | 1.95 ± 0.056 | 2.31 ± 0.047 | 2.01 ± 0.061 | 2.36 ± 0.053
20 | GKVRLWKATYSNEFKCM [YGL100W/SEH1] | 2 ± 0.041 | 1.84 ± 0.053 | 1.78 ± 0.048 | 2.22 ± 0.03
21 | DSYGQGSMTKTWYVGNS [SSN2] | 2.94 ± 0.13 | 3.09 ± 0.16 | 3.34 ± 0.16 | 3.05 ± 0.088
22 | AQFYLGKRIAYVYRASK [RPL33A] | 1.81 ± 0.068 | 1.62 ± 0.076 | 1.36 ± 0.096 | 1.74 ± 0.069
23 | NRLEKEQSVKTQNSRHY [LIN1] | 2.44 ± 0.13 | 2.85 ± 0.12 | 2.52 ± 0.13 | 2.49 ± 0.096
24 | KEISARRYKLLTATPNS [POP1] | 2.1 ± 0.051 | 2.45 ± 0.061 | 2.32 ± 0.06 | 2.5 ± 0.051

Row | Sequence | protein stability index (doa10∆) | protein stability index (pdr5∆) | protein stability index (san1∆) | protein stability index (ubr1∆)
25 | LIIIEKKQKLIEEQDKK [ITC1] | 3.12 ± 0.13 | 2.9 ± 0.21 | 2.96 ± 0.17 | 2.89 ± 0.084
26 | AQQLVGVYKRDNRTKST [SMC4] | 3.11 ± 0.2 | 3.04 ± 0.2 |  | 
27 | GTPPMLHQRTHKQVYPL [DSN1] | 2.52 ± 0.1 | 2.87 ± 0.069 | 2.77 ± 0.071 | 2.93 ± 0.056
28 | LEEKLYQMQSNYESVFT [YIL149C/MLP2] | 2.24 ± 0.052 | 1.71 ± 0.028 | 2.52 ± 0.068 | 2.57 ± 0.045
29 | RFNVVKVSAAAGKANKQ [RPS11A] | 1.44 ± 0.068 | 1.38 ± 0.087 | 2.92 ± 0.18 | 2.22 ± 0.067
30 | KCPLLVEVDITLSPNVT [GRR1] | 1.8 ± 0.058 | 1.83 ± 0.065 | 1.76 ± 0.088 | 2.51 ± 0.071
31 | MNEMCKKINAKEKLIGW [RPN8] | 2.86 ± 0.043 | 3.13 ± 0.056 | 3.03 ± 0.046 | 3.08 ± 0.031
32 | FHAEPSGTFYRYNAKAI [PUP2] | 2.79 ± 0.15 | 1.81 ± 0.13 | 2.87 ± 0.059 | 1.67 ± 0.077
33 | PTSPSYSPTSPSYSPTS [RPO21] | 2.59 ± 0.044 | 2.99 ± 0.041 | 2.66 ± 0.04 | 2.85 ± 0.037
34 | TTSEATANDRQINNVHL [RPN4] | 2.97 ± 0.11 | 2.91 ± 0.079 | 2.49 ± 0.087 | 2.7 ± 0.097
35 | MEDKISEFLNVPFESLQ [YIL149C/MLP2] | 3.18 ± 0.09 | 3.35 ± 0.079 | 3.33 ± 0.067 | 3.06 ± 0.057
36 | GTPKTDSFIFDGTAKEV [MED4] | 2.32 ± 0.041 | 2.43 ± 0.046 | 2.58 ± 0.071 | 2.65 ± 0.045
37 | GKTGLSNMILGSVELST [YML103C/NUP188] | 2.24 ± 0.056 | 2.57 ± 0.086 | 2.34 ± 0.069 | 2.33 ± 0.042
38 | LVDLVSHFSPDIKAAVD [ITC1] | 1.95 ± 0.063 | 1.99 ± 0.071 | 2.09 ± 0.076 | 2.54 ± 0.05
39 | VGEMKLLKKKDDPSKVR [YLR335W/NUP2] | 3.29 ± 0.08 | 3.32 ± 0.15 | 2.98 ± 0.091 | 2.74 ± 0.16
40 | YKLFIWLVVPTIYNLQH [YML031W/NDC1] | 1.36 ± 0.033 | 1.51 ± 0.032 | 1.36 ± 0.059 | 1.26 ± 0.029
41 | EQSELLKAQITSLKCLV [SNF2] | 1.92 ± 0.049 | 1.83 ± 0.048 | 2.16 ± 0.074 | 1.99 ± 0.042
42 | INQYQLLYNLKNDILTN [SWI1] | 1.63 ± 0.038 | 1.33 ± 0.049 | 1.28 ± 0.1 | 1.18 ± 0.036
43 | NDFKKIGRENENENEDD [POP5] | 3.22 ± 0.11 | 3.28 ± 0.097 | 3.16 ± 0.067 | 2.79 ± 0.11
44 | QIQKNGPEITPEEATTI [PRP8] | 2.85 ± 0.26 | 2.98 ± 0.15 | 2.83 ± 0.16 | 3.12 ± 0.16
45 | LSGGQKTVCAIALILAI [SMC3] |  | 1.94 ± 0.19 |  | 2.74 ± 0.12
46 | NEMLLKRVTKVKRLLFT [MTW1] | 1.26 ± 0.054 | 1.56 ± 0.049 | 1.21 ± 0.11 | 1.42 ± 0.036
47 | LLYLRLKNIYVSADDFV [PRP8] | 1.26 ± 0.052 | 1.39 ± 0.054 | 1.27 ± 0.097 | 1.16 ± 0.046
